From patent US12331120 (dated 2025)
Substitutions are numbered along the chain they refer to.

B1: KL001-13 (antibody, V domains shown)
VH: QVQLVESGAEVKKPGSSVKVSCKASGGTFSSYAISWVRQAPGQGLEWMGRIIPILGIANYAQKFQGRVTVTADKSTSTAYMELSSLRSEDTAVYYCARSGYGYAYGSFDYWGQGTLVTVSS
VL: QLVLTQPPSVSGAPGQTVTISCTGQTIGAGYDVHWYQQLPGAAPKLLIYGNLNRPSGVPDRFSGSKSGTSASLAITDLQAEDEADYYCQSYDSRLGVVFGGGTKLTVL
B2: KL001 (PL110) (antibody, V domains shown)
VH: B1 VH with G102S
VL: B1 VL with Q25P

Tests used:
[1] = molecular target: mouse PD-L1 (mouse, UniProt Q9EP73); assay: SPR
[2] = molecular target: T1, human PD-L1 (human, UniProt Q9NZQ7); assay: SPR
[3] = molecular target: T1, human PD-L1; assay: BLI

T1 sequence (Q9NZQ7 19-238): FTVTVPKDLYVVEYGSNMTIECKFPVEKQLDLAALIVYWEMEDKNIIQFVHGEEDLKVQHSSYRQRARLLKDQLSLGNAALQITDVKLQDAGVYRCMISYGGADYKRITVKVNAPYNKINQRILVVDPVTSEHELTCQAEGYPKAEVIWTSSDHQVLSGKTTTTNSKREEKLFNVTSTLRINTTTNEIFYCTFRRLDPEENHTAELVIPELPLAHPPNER
Sequence of mouse PD-L1 (Q9EP73 19-238): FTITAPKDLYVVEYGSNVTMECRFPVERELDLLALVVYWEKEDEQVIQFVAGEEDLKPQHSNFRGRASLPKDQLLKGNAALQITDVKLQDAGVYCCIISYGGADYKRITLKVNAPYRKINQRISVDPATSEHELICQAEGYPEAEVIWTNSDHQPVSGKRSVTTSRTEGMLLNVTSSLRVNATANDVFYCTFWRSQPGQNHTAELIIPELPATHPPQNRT

Binder | Kd [1] [nM] | Kd [2] [nM] | Kd [3] [nM]
B1 | ~2.8 | ~0.0632 | 0.00489
B2 | – | – | 0.0584
